From USRE39433 (MEDVET SCIENCE, dated 2006)

Assays:
[1] = target: IL-3R α-chain co-expressed with R418A βc on COS cells (human) (UniProt P26951); test: radioligand saturation binding on transfected COS cells
[2] = target: IL-3R α-chain co-expressed with mutant ^418AAAYA^422 βc on COS cells (human) (UniProt P26951); test: as above
[3] = target: IL-3R α-chain co-expressed with Y421A βc on cells (human) (UniProt P26951); test: cell-based or functional assay
[4] = target: IL-3R α-chain co-expressed with T419A βc on COS cells (human) (UniProt P26951); test: Scatchard (LIGAND) of 125I-IL-3 on COS cells with α-chains and T419A βc; high affinity site 1
Chain of IL-3R α-chain co-expressed with T419A βc on COS cells (human) (P26951 19-378, chain 1 of 2): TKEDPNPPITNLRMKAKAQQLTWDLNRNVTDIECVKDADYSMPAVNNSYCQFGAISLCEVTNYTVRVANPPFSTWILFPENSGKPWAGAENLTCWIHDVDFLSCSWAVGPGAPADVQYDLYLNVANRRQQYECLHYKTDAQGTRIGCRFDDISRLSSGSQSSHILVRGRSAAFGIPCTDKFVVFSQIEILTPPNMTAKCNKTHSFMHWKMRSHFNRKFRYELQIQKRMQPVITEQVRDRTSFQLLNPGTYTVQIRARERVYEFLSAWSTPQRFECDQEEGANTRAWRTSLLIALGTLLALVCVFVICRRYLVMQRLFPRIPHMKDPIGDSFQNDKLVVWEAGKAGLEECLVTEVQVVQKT
Chain of IL-3R α-chain co-expressed with T419A βc on COS cells (human) (P32927 17-897 T419A, chain 2 of 2, further chain): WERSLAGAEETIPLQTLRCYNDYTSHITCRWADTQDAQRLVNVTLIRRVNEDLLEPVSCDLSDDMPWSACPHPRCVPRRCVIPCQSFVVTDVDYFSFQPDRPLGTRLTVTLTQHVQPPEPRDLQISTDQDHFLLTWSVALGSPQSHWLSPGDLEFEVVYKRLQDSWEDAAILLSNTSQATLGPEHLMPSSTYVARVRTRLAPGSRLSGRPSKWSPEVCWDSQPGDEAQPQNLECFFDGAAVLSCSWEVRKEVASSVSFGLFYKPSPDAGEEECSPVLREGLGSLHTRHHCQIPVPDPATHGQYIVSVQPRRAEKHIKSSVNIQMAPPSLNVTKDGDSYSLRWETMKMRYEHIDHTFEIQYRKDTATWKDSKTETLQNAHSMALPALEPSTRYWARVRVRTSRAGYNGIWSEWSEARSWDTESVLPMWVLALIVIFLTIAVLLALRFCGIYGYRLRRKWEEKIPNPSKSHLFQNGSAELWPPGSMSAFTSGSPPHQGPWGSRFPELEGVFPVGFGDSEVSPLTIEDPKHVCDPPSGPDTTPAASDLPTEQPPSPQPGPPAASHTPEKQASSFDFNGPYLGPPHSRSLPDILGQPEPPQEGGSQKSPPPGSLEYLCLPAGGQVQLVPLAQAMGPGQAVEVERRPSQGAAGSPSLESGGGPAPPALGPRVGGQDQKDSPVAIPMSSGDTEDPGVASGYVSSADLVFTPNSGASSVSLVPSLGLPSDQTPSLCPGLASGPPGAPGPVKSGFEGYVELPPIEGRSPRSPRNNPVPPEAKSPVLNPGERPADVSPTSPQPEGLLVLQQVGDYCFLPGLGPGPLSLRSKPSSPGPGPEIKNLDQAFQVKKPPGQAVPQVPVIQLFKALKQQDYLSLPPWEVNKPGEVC

[5] = target: IL-3R α-chain co-expressed with N422A βc on COS cells (human) (UniProt P26951); test: Scatchard (LIGAND) of 125I-IL-3 on COS cells with α-chains and N422A βc; high affinity site 1
Chain of IL-3R α-chain co-expressed with N422A βc on COS cells (human) (P26951 19-378, chain 1 of 2): as the sequence (P26951 19-378, chain 1 of 2) above
Chain of IL-3R α-chain co-expressed with N422A βc on COS cells (human) (P32927 17-897 N422A, chain 2 of 2, further chain): as the sequence (P32927 17-897 T419A, chain 2 of 2, further chain) above, with A403T, N406A counted along it

[6] = target: IL-3R α-chain co-expressed with mutant ^418AAAYA^422 βc on COS cells (human) (UniProt P26951); test: Scatchard (LIGAND) of 125I-IL-3 on COS cells with α-chains and ^418AAAYA^422 βc; high affinity site 1
[7] = target: IL-3R α-chain co-expressed with R418A βc on COS cells (human) (UniProt P26951); test: Scatchard (LIGAND) of 125I-IL-3 on COS cells with α-chains and R418A βc; high affinity site 1
[8] = target: IL-3R α-chain co-expressed with G420A βc on COS cells (human) (UniProt P26951); test: Scatchard (LIGAND) of 125I-IL-3 on COS cells with α-chains and G420A βc; high affinity site 1
Chain of IL-3R α-chain co-expressed with G420A βc on COS cells (human) (P26951 19-378, chain 1 of 2): as the sequence (P26951 19-378, chain 1 of 2) above
Chain of IL-3R α-chain co-expressed with G420A βc on COS cells (human) (P32927 17-897 G420A, chain 2 of 2, further chain): as the sequence (P32927 17-897 T419A, chain 2 of 2, further chain) above, with A403T, G404A counted along it

[9] = target: IL-5R α-chain co-expressed with Y421A βc on COS cells (human) (UniProt Q01344); test: Scatchard (LIGAND) of radio-iodinated IL-5 on COS cells with IL-5R α-chain and Y421A βc; single receptor class
Chain of IL-5R α-chain co-expressed with Y421A βc on COS cells (human) (Q01344 21-420, chain 1 of 2): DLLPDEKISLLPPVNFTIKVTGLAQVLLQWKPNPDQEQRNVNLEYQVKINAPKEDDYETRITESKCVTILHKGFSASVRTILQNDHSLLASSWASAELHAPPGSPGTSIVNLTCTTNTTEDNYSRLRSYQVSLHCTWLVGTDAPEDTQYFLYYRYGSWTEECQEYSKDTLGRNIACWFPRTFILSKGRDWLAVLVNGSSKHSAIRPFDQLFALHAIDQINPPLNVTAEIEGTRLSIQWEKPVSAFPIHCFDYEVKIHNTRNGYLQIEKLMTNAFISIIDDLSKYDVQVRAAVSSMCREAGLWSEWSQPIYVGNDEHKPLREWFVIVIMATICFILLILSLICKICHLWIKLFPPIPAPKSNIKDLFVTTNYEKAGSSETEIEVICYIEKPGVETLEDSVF
Chain of IL-5R α-chain co-expressed with Y421A βc on COS cells (human) (P32927 17-897 Y421A, chain 2 of 2, further chain): as the sequence (P32927 17-897 T419A, chain 2 of 2, further chain) above, with A403T, Y405A counted along it

[10] = target: IL-5R α-chain co-expressed with mutant ^418AAAYA^422 βc on COS cells (human) (UniProt Q01344); test: Scatchard (LIGAND) of radio-iodinated IL-5 on COS cells with IL-5R α-chain and ^418AAAYA^422 βc; single receptor class
Chain of IL-5R α-chain co-expressed with mutant ^418AAAYA^422 βc on COS cells (human) (Q01344 21-420, change not shown, chain 1 of 2): as the sequence (Q01344 21-420, chain 1 of 2) above
Chain of IL-5R α-chain co-expressed with mutant ^418AAAYA^422 βc on COS cells (human) (P32927 other isoform, or with tags, fused parts or gaps mutant, chain 2 of 2, further chain): as the sequence (P32927 17-897 T419A, chain 2 of 2, further chain) above, with R402A, G404A, N406A counted along it

[11] = target: T1, IL-3R α-chain expressed on cells without βc (UniProt P26951 19-378, limits assumed); test: radioligand saturation binding, COS cells with α-chain only; range of affinities observed
T1 construct: whole, on cells; also called α-chain only; hIL-3Rα
T1 sequence (P26951 19-378 limits assumed): as the sequence (P26951 19-378, chain 1 of 2) above

[12] = target: T2, IL-3R α-chain co-expressed with wild type βc on cells (human, UniProt P26951 19-378; P32927 17-897); test: Scatchard (LIGAND) of 125I-IL-3 on COS cells with α-chains and wild type βc; high affinity site 1, low affinity site fixed at 50 nM
T2 construct: whole, on cells; The COS cells carried GM-CSFR and IL-3R α-chains together with βc; also called Wt βc
T2 sequence (P26951 19-378, chain 1 of 2): as above
T2 sequence (P32927 17-897, chain 2 of 2): as the sequence (P32927 17-897 T419A, chain 2 of 2, further chain) above, with A403T counted along it

Chain of IL-3R α-chain co-expressed with R418A βc on COS cells (human) (P26951 19-378, chain 1 of 2): as the sequence (P26951 19-378, chain 1 of 2) above
Chain of IL-3R α-chain co-expressed with R418A βc on COS cells (human) (P32927 17-897 R418A, chain 2 of 2, further chain): as the sequence (P32927 17-897 T419A, chain 2 of 2, further chain) above, with R402A, A403T counted along it
Chain of IL-3R α-chain co-expressed with mutant ^418AAAYA^422 βc on COS cells (human) (P26951 19-378, stated change not applied, chain 1 of 2): as the sequence (P26951 19-378, chain 1 of 2) above
Chain of IL-3R α-chain co-expressed with mutant ^418AAAYA^422 βc on COS cells (human) (P32927 other isoform, or with tags, fused parts or gaps mutant, chain 2 of 2, further chain): as the sequence (P32927 17-897 T419A, chain 2 of 2, further chain) above, with R402A, G404A, N406A counted along it
Chain of IL-3R α-chain co-expressed with Y421A βc on cells (human) (P26951 19-378, chain 1 of 2): as the sequence (P26951 19-378, chain 1 of 2) above
Chain of IL-3R α-chain co-expressed with Y421A βc on cells (human) (P32927 17-897 Y421A, chain 2 of 2, further chain): as the sequence (P32927 17-897 T419A, chain 2 of 2, further chain) above, with A403T, Y405A counted along it

Human interleukin (IL)-3 (from UniProt P08700 20-152) (ligand)
fold reduction of high affinity binding against wild type βc [1]: 2 to 3 fold | fold reduction of affinity against wild type high affinity binding [2]: 3 fold | STAT5-L activation (EMSA with STAT5 probe, phosphorimager) in transfected Jurkat cells; concentration for half maximal activation [3]: > 3 µM | Kd [4]: 0.151 nM | Kd [5]: 0.08 nM | Kd [6]: 0.113 nM | Kd [7]: 0.511 nM | Kd [8]: 0.196 nM

Human interleukin IL-5 (from UniProt P05113 20-134) (ligand)
Kd [9]: 1.86 nM | Kd [10]: 0.71 nM

B1: Human interleukin (IL)-3 (ligand, UniProt P08700 20-152, looked up)
chain: APMTQTTPLKTSWVNCSNMIDEIITHLKQPPLPLLDFNNLNGEDQDILMENNLRRPNLEAFNRAVKSLQNASAIESILKNLLPCLPLATAAPTRHPIHIKDGDWNEFRRKLTFYLKTLENAQAQQTTLSLAIF
modifications: radio-iodinated (125I) in the saturation binding studies
notes: unlabelled in the STAT5-L assays on Jurkat cells; also called ^125I-IL-3
Kd [11]: 20 to 100 nM | Kd [12]: 0.141 nM
